{"source": "paper PMC5091643", "about": "“Dimer/monomer status and in vivo function of salt‐bridge mutants of the plant UV‐B photoreceptor UVR8” (The Plant Journal, 2016)", "binders": {"B1": {"name": "UV … LOCUS8 (UVR8), purified wild-type, Q9FN03 1-440 (natural protein)", "chain": "MAEDMAADEVTAPPRKVLIISAGASHSVALLSGDIVCSWGRGEDGQLGHGDAEDRPSPTQLSALDGHQIVSVTCGADHTVAYSQSGMEVYSWGWGDFGRLGHGNSSDLFTPLPIKALHGIRIKQIACGDSHCLAVTMEGEVQSWGRNQNGQLGLGDTEDSLVPQKIQAFEGIRIKMVAAGAEHTAAVTEDGDLYGWGWGRYGNLGLGDRTDRLVPERVTSTGGEKMSMVACGWRHTISVSYSGALYTYGWSKYGQLGHGDLEDHLIPHKLEALSNSFISQISGGWRHTMALTSDGKLYGWGWNKFGQVGVGNNLDQCSPVQVRFPDDQKVVQVSCGWRHTLAVTERNNVFAWGRGTNGQLGIGESVDRNFPKIIEALSVDGASGQHIESSNIDPSSGKSWVSPAERYAVVPDETGLTDGSSKGNGGDISVPQTDVKRVRI"}, "B2": {"name": "UVR8^R146A, purified (natural protein, Arabidopsis thaliana, UniProt Q9FN03 1-440, looked up)", "chain": "B1 chain with R146A", "notes": "UV … LOCUS8 (UVR8), Arabidopsis thaliana; source: E. coli, purified as described previously (Christie et al., 2012)"}, "B3": {"name": "GFP-UVR8 (wild type) in transgenic Arabidopsis uvr8-1, Q9FN03 1-440 (natural protein)", "chain": "B1 chain"}, "B4": {"name": "GFP-UVR8^R146A in transgenic Arabidopsis uvr8-1 (natural protein, Arabidopsis thaliana, UniProt Q9FN03 1-440, looked up)", "chain": "B1 chain with R146A", "notes": "UV … LOCUS8 (UVR8), Arabidopsis thaliana; Sub-cloned into pEZR(K)L-C downstream of eGFP; also called line 9; source: transgenic Arabidopsis uvr8-1 plants (CaMV 35S promoter), in whole cell extract; not shown: eGFP, N-terminal, kept"}, "B5": {"name": "UVR8^R286K, purified (natural protein, Arabidopsis thaliana, UniProt Q9FN03 1-440, looked up)", "chain": "B1 chain with R286K", "notes": "as for B2"}, "B6": {"name": "GFP-UVR8 (wild type) transiently expressed in Nicotiana benthamiana, Q9FN03 1-440 (natural protein)", "chain": "B1 chain"}, "B7": {"name": "GFP-UVR8^R286K in transgenic Arabidopsis uvr8-1 (natural protein, Arabidopsis thaliana, UniProt Q9FN03 1-440, looked up)", "chain": "B1 chain with R286K", "notes": "UV … LOCUS8 (UVR8), Arabidopsis thaliana; Sub-cloned into pEZR(K)L-C downstream of eGFP; also called line 2-3; source: transgenic Arabidopsis uvr8-1 plants (CaMV 35S promoter), in whole cell extract; not shown: eGFP, N-terminal, kept"}}, "key": {"[1]": {"biological_target": "T1, UV … LOCUS8 (UVR8), purified wild-type (Arabidopsis thaliana), Q9FN03", "T1 chain": "B1 chain", "test": "SEC; purified proteins not exposed to UV-B; Superdex 200 HR10/30, 50 mM Tris pH 7.5, 150 mM NaCl, 1 mM β-ME, 0.02% sodium azide, 4°C; dimer to monomers", "conditions": "remark: other sources report otherwise"}, "[2]": {"biological_target": "the molecule itself", "test": "SEC; purified proteins not exposed to UV-B; Superdex 200 HR10/30, 50 mM Tris pH 7.5, 150 mM NaCl, 1 mM β-ME, 0.02% sodium azide, 4°C; dimer to monomers"}, "[3]": {"biological_target": "T2, GFP-UVR8 (wild type) in transgenic Arabidopsis uvr8-1 (Arabidopsis thaliana), Q9FN03", "T2 chain": "B1 chain", "test": "SDS-PAGE with non-boiled samples; whole cell extracts of transgenic uvr8-1 plants not exposed to UV-B; SDS-loading buffer, not boiled, 7.5% gel, blot with anti-UVR8", "conditions": "remark: other sources report otherwise"}, "[4]": {"biological_target": "T2, GFP-UVR8 (wild type) in transgenic …", "test": "cross-linking; DSP (4 mM, 30 min on ice) added to PBS extracts of transgenic uvr8-1 plants not exposed to UV-B; 10% SDS-PAGE without β-ME, blot with anti-UVR8", "conditions": "remark: other sources report otherwise"}, "[5]": {"biological_target": "the molecule itself", "test": "cross-linking; DSP (4 mM, 30 min on ice) added to PBS extracts of transgenic uvr8-1 plants not exposed to UV-B; 10% SDS-PAGE without β-ME, blot with anti-UVR8"}, "[6]": {"biological_target": "T3, GFP-UVR8 (wild type) transiently expressed in Nicotiana benthamiana (Arabidopsis thaliana), Q9FN03", "T3 chain": "B1 chain", "test": "SEC; GFP fusions transiently expressed in N. benthamiana, not exposed to UV-B, immunoprecipitated with anti-GFP microbeads; eluates on Superdex 200, fractions blotted with anti-GFP", "conditions": "remark: other sources report otherwise"}}, "note": "Positions count from the first letter of the chain named. Names may count otherwise.", "data": [{"binder": "B1", "values": [{"measurement": "stoichiometry N", "setting": "[1]", "result": 2}]}, {"binder": "B2", "values": [{"measurement": "stoichiometry N", "setting": "[2]", "result": 2}]}, {"binder": "B3", "values": [{"measurement": "stoichiometry N", "setting": "[3]", "result": 2}, {"measurement": "stoichiometry N", "setting": "[4]", "result": 2}]}, {"binder": "B4", "values": [{"measurement": "stoichiometry N", "setting": "[5]", "result": 2}]}, {"binder": "B5", "values": [{"measurement": "stoichiometry N", "setting": "[2]", "result": 2}]}, {"binder": "B6", "values": [{"measurement": "stoichiometry N", "setting": "[6]", "result": 2}]}, {"binder": "B7", "values": [{"measurement": "stoichiometry N", "setting": "[5]", "result": 2}]}]}
